Ends that are not written are not given here.
Tests used:
[1] = system: platelet αIIbβ3; test: ELISA: inhibition by competitor of anti-mimic antibody reactivity with native platelet αIIbβ3; format: binding, human; conditions: antibody raised against FIG. 2 heterodimeric mimic; result in words
Protocol: Antibodies against these heteromeric complexes of the present invention that recognize combinatorial epitopes of the cytoplasmic domains of the complex can be produced in accordance with well known techniques. For example, antibodies were prepared against the heterodimeric complex of FIG. 2. […] Thus, this antibody recognized combinatorial epitopes in the cytoplasmic domain of the native receptor that were mimicked in the model protein.
Antibodies to the model protein depicted in FIG. 2 were raised in 2.5 kg New Zealand white rabbits. One hundred microliters of a water solution containing 1 mg/ml of the model protein was emulsified in 1 ml incomplete Freund's adjuvant and administered subcutaneously to each New Zealand white rabbit. Two additional injections at 2-week intervals were followed by bleeding (approximately 50 mls) at monthly intervals until the rabbits were sacrificed. Blood was permitted to clot at room temperature, and the serum was recovered by centrifugation. Serum was heat inactivated at 56° C. for 30 minutes and stored at −20° C. A pre-immune serum, obtained prior to immunization, was used as a control.
αIIbβ3 was purified by gel filtration in accordance with procedures described by Du et al. (Cell 65:409-416 (1991)) with omission of the heparin and Con A affinity chromatography steps. […] To quantify bound antibody, 50 μl of horseradish peroxidase-conjugated goat anti-rabbit IgG (Biorad) was diluted to a concentration of 1/1000 in wash buffer containing 1 mg/ml bovine serum albumin. […] After four washes, bound antibody was assayed by measuring peroxidase activity with O-phenylenediamine as a substrate and quantifying reaction product by its optical density at 490 nm. Data were expressed as B/B0 where B=A490 in the presence of competitor and B0=A490 in its absence. In some experiments, varying concentrations of αIIb peptides were added to a fixed, saturating, quantity of β3 peptide (20-50 nM). Competition was again expressed as B/BO, however, B0 was the A490 in the presence of the β3 peptide and no added αIIb peptide. […]

[2] = biological target: T1, integrin β3 cytoplasmic domain (Homo sapiens, UniProt P05106); test: Immunochemical ELISA: αIIb peptides added to fixed saturating β3 peptide, competition for anti-model protein antibody binding to coated αIIbβ3 (EC50 determination); conditions: for EC50: dose of αIIb peptide resulting in B/B0=0.5 with fixed saturating β3 peptide (20-50 nM)
T1 sequence (P05106 742-788 limits assumed): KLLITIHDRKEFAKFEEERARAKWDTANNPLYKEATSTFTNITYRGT
From the text: Antibodies raised against a mimic of the present invention were used in an immunochemical assay to identify compounds that bind to the 3 cytoplasmic domain and induce a conformation change. In this assay, the binding of the αIIb and β3 cytoplasmic tails was first analyzed. […] Furthermore, as shown in this Table, point mutations or deletions that disrupted this heptapeptide sequence in the αIIb cytoplasmic domain also disrupted interaction with β3.
αIIbβ3 was purified by gel filtration in accordance with procedures described by Du et al. (Cell 65:409-416 (1991)) with omission of the heparin and Con A affinity chromatography steps. The final product was greater than 95% homogenous as judged by SDS PAGE. In the enzyme-linked immunosorbent assay (ELISA) the αIIbβ3 was used at a concentration of 5 μg/ml in a coating buffer containing 0.1 M NaHCO3 and 0.05% NaN3. Fifty ul/well was used to coat IMMULON II microtiter wells at 4° C. overnight. After removal of the coating solution, 150 Al blocking buffer (coating buffer containing 5% bovine serum albumin) was added. After an additional one hour incubation at 4° C., the blocking buffer was removed and the plates were washed three times with wash buffer (0.01 M Tris, 0.15 M NaCl, 0.01% thimerisol, 0.05% Tween 20, pH 8.0). Twenty-five microliters of the competitor was added to each well followed by 25 μl of a dilution of the anti-model protein antibody. Following mixing, the plate was covered for one hour at 37° C. and washed four times with wash buffer. To quantify bound antibody, 50 μl of horseradish peroxidase-conjugated goat anti-rabbit IgG (Biorad) was diluted to a concentration of 1/1000 in wash buffer containing 1 mg/ml bovine serum albumin. These plates were then incubated at 37° C. for 1.5 hours. After four washes, bound antibody was assayed by measuring peroxidase activity with O-phenylenediamine as a substrate and quantifying reaction product by its optical density at 490 nm. Data were expressed as B/B0 where B=A490 in the presence of competitor and B0=A490 in its absence. In some experiments, varying concentrations of αIIb peptides were added to a fixed, saturating, quantity of β3 peptide (20-50 nM). Competition was again expressed as B/BO, however, B0 was the A490 in the presence of the β3 peptide and no added αIIb peptide. EC50 was defined as the dose of αIIb resulting in B/B0=0.5.

[3] = biological target: T2, Full-length β3 peptide (β3 cytoplasmic tail) (UniProt P05106 742-788, limits assumed); test: αIIb peptide titrated with fixed saturating β3 peptide; inhibition of antibody binding to coated αIIbβ3 (ELISA), EC50 at B/B0=0.5
T2 construct: domain: cytoplasmic domain; also called wild-type β3
T2 peptide (looked up): T1 sequence (P05106 742-788 limits assumed)

[4] = biological target: T2, Full-length β3 peptide (β3 cytoplasmic …); test: competitive ELISA with β3 peptide and anti-model protein antibody on coated αIIbβ3
[5] = biological target: talin (Homo sapiens, UniProt Q9Y490); test: Affinity chromatography of cell lysates on cytoplasmic domain mimics, talin detected; format: binding; set-up: endogenous in cells; host or cells: human platelets (also Jurkat, HT1080, mouse C2C12 myotubes); conditions: NHS-biotin-labeled human platelet lysates; result in words
From the text: To study possible influences of the structural changes induced by the Gly insertions, protein models were produced having the β1A cytoplasmic domain with one, two and three additional Gly residues inserted after the heptad-repeat motif (G2-, G3-, G4-β1A) and compared with the G1-β1A construct. As an additional control, a variant of the G4-β1A peptide was produced with a Tyr to Ala substitution in the membrane-proximal NPXY-motif (G4-β1A-Y788A) (FIG. 1). This mutation interferes with focal adhesion targeting and activation of integrins. The purified proteins were bound via their N=terminal His-Tag to a Ni^2+−resin and used in affinity chromatography experiments with lysates of NHS-biotin-labeled human platelets. Marked changes in the pattern of protein binding were observed as a consequence of the Gly insertions. Polypeptides migrating at 45, 56, 58, 140 and 240 kDa bound only to the mimics with Gly insertions. […] Using monoclonal antibodies, the 240 kDa and 45 kDa proteins were identified as filamin and actin, respectively. […] Talin bound to the G1- and G4-β1A construct but not to the Y788A-G4β1A construct. Thus, the structural changes in the model induced by the insertion of glycines into the coiled-coil motif and the integrin cytoplasmic domain sequence alter interactions of these proteins with cellular components. Alterations of the β1A tail that block cytoskeletal interactions, such as the Y788 mutation and β1B- and β1C-splice variants also abrogate binding to talin and filamin. Consequently, the observed in vitro interactions are likely to be biologically relevant.
Human platelets were obtained by centrifugation of freshly drawn blood samples at 1000 rpm for 20 minutes and sedimentation of the resulting platelet-rich plasma at 2600 rpm for 15 minutes. They were washed twice with 0.12 M NaCl, 0.0129 M trisodium citrate, 0.03 M glucose, pH 6.5, and once in Hepes-Saline (3.8 mM Hepes, 137 mM NaCl, 2.7 mM KCl, 5.6 mM D-Glucose, 3.3 mM Na2HPO4, pH 7.3-7.4). […]

talin, sequence (Q9Y490 whole entry, the tested form may be a part): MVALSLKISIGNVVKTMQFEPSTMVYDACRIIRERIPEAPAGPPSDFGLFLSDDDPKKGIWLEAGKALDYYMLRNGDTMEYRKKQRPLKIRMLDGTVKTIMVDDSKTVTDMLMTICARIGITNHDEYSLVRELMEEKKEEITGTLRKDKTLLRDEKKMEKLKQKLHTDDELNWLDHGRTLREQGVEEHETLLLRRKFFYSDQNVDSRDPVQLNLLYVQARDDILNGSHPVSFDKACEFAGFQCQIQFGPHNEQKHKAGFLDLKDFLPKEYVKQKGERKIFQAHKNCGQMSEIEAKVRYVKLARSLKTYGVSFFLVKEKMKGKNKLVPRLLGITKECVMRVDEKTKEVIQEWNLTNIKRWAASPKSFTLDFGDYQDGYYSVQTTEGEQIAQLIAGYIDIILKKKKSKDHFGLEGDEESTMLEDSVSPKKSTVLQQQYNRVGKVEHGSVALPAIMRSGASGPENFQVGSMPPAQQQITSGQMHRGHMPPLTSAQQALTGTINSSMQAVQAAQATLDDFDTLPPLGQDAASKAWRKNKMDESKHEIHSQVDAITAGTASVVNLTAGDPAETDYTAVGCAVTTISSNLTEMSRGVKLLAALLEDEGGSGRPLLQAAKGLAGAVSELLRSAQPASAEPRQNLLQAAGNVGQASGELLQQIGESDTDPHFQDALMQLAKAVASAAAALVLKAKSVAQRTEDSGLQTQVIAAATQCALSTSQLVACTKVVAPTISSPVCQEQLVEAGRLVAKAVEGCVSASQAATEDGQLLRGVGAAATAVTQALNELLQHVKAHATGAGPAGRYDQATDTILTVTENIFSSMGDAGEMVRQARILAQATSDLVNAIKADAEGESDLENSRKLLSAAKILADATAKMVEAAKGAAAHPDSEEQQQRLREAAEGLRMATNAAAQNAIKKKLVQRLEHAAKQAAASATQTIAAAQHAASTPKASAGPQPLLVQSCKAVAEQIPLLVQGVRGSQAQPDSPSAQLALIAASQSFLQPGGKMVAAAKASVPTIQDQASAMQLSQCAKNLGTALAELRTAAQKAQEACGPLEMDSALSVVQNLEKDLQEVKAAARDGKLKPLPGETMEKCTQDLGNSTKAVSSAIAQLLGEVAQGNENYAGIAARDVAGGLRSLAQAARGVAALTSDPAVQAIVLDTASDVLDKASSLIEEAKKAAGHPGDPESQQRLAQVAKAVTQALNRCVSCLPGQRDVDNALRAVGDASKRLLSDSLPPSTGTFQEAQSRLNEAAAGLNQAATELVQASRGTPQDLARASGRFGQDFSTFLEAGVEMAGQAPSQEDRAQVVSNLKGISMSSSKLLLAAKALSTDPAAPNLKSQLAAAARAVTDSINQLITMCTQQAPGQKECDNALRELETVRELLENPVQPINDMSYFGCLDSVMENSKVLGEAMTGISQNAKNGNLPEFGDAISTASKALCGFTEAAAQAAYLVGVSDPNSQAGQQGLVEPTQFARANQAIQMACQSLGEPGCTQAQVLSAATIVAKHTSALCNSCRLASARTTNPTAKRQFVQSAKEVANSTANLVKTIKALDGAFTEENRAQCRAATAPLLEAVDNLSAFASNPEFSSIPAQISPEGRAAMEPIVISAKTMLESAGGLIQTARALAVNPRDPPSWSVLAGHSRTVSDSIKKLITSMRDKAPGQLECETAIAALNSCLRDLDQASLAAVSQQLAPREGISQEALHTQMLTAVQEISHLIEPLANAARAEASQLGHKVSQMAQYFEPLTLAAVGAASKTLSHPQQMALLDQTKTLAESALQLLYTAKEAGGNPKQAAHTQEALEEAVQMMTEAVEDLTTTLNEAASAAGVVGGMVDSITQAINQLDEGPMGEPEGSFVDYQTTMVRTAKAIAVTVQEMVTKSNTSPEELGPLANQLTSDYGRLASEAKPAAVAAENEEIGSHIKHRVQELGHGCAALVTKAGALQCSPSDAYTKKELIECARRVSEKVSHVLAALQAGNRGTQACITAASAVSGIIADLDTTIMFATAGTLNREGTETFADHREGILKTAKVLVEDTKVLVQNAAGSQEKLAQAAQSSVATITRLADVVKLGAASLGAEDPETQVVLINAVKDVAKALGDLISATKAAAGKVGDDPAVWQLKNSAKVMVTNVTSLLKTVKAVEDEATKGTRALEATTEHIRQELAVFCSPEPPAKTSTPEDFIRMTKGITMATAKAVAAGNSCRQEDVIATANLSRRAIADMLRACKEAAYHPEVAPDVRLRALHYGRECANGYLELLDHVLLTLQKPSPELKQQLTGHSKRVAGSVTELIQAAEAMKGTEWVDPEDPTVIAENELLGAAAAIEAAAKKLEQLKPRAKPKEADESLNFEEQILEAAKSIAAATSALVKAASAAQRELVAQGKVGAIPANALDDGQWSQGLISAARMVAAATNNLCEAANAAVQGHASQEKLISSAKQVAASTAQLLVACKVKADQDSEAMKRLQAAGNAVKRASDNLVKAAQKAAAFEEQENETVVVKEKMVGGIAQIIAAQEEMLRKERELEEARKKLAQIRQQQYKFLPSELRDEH

With “full-length αIIb peptide: full-length linear peptide of the αIIb cytoplasmic domain (KVGFFKRNRPPLEEDDEEGE)” the “inhibition of antibody reactivity with platelet αIIbβ3” value (from here on “inhibition of antibody reactivity”) [1] was “not inhibited” and the “interaction with β3 cytoplasmic tail (induces conformation change seen by antibody)” value ([2]; result in words) was “apparent affinity of the interaction was high”.

With KVGFFKRNRPPLEEAAEEGQ the EC50 [2] was > 1000 nM.

With “β3 (Y747A) mutant: mutant of the β3 cytoplasmic domain, Y747A (KLLITIHDRKEFAKFEEERARAKWDTANNPLAKEATSTFTNITYRGT)” the “inhibition of antibody reactivity” value [1] was “completely inhibited”.

With KVGFFKRNRPPLEE the EC50 [2] was > 1000 nM.

For KVGFFPLEEAAEEGQ, the EC50 [2] was > 1000 nM.

In the case of “full-length β3 peptide: full-length linear peptide of the β3 cytoplasmic domain (KLLITIHDRKEFAKFEEERARAKWDTANNPLYKEATSTFTNITYRGT)”, the “inhibition of antibody reactivity” value [1] is reported as “only partially inhibited”.

In the case of PPLEED [PPLEED], the EC50 [2] is reported as > 1000 nM.

PLEEDDEEGQ was tested, and the EC50 [2] was > 1000 nM.

In the case of KVGFFKRNRPPLEEDDEEGQ [αIIb peptide KVGFFKRNRPPLEEDDEEGQ], the EC50 [3] is reported as 3 nM.

Work on KVGFFKRNRPPLEEDD [αIIb peptide KVGFFKRNRPPLEEDD] yielded an EC50 [3] of 5 nM.

KRNRPPLEEDDEEGQ [αIIb peptide KRNRPPLEEDDEEGQ] gave an EC50 [3] of 6 nM.

In the case of NRPPLEEDDEEGQ [αIIb peptide NRPPLEEDDEEGQ], the EC50 [3] is reported as 8 nM.

With NRPPLEEDD [αIIb peptide NRPPLEEDD] the EC50 [3] was 20 nM.

Molecule RPPLEED [αIIb heptapeptide RPPLEED] has an EC50 [3] of 30 nM.

KAGFFKRQYKSILQEENRRDSWSYINSKSNDD (peptide, UniProt P13612 1001-1032, looked up, domain: cytoplasmic domain) [Cytoplasmic domain of integrin α4]: no binding [4].

KLGFFKRSLPYGTAMEKAQLKPPATSDA (peptide, UniProt P08648 1022-1049, looked up, domain: cytoplasmic domain) [Cytoplasmic domain of integrin α5]: no binding [4].

B1: G1-β1A: His-tag, four heptad repeats, one glycine, β1A integrin cytoplasmic domain (protein)
chain: GSSHHHHHHSSGLVPRGSHMCGKLEALEGRLDALEGKLEALEGKLDALEGKLLMIIHDRREFAKFEKEKMNAKWDTGENPIYKSAVTTVVNPKYEGK
B1 was tested, and the “talin binding from cell lysates” value [5] was “bound”.

B2: G4-β1A: β1A construct with three additional glycines between heptad repeats and cytoplasmic domain (protein)
chain: GSSHHHHHHSSGLVPRGSHMKLEALEGRLDALEGKLEALEGKLDALEGGGGKLLMIIHDRREFAKFEKEKMNAKWDTGENPIYKSAVTTVVNPKYEGK
For B2, the “talin binding from cell lysates” value [5] was “bound”.

— US20030224453A1, “Structural models for cytoplasmic domains of transmembrane receptors” (priority 1998, published 2003)
